Results: article PMC12808597 (2025)

B1: GLP-1R endogenously expressed in INS-1 832/3 clonal rat β-cells (receptor)
chain: GPRPQGATVSLSETVQKWREYRHQCQRFLTEAPLLATGLFCNRTFDDYACWPDGPPGSFVNVSCPWYLPWASSVLQGHVYRFCTAEGIWLHKDNSSLPWRDLSECEESKQGERNSPEEQLLSLYIIYTVGYALSFSALVIASAILVSFRHLHCTRNYIHLNLFASFILRALSVFIKDAALKWMYSTAAQQHQWDGLLSYQDSLGCRLVFLLMQYCVAANYYWLLVEGVYLYTLLAFSVFSEQRIFKLYLSIGWGVPLLFVIPWGIVKYLYEDEGCWTRNSNMNYWLIIRLPILFAIGVNFLVFIRVICIVIAKLKANLMCKTDIKCRLAKSTLTLIPLLGTHEVIFAFVMDEHARGTLRFVKLFTELSFTSFQGFMVAVLYCFVNNEVQMEFRKSWERWRLERLNIQRDSSMKPLKCPTSSVSSGATVGSSVYAATCQNSCS
B2: mouse glucagon-like peptide-1 receptor, untagged (receptor)
chain: GPRPQGTTVSLSETVQKWREYRRQCQRFLTEAPLLATGLFCNRTFDDYACWPDGPPGSFVNVSCPWYLPWASSVLQGHVYRFCTAEGLWLHKDNSSLPWRDLSECEESKRGERNFPEEQLLSLYIIYTVGYALSFSALVIASAILVGFRHLHCTRNYIHLNLFASFILRALSVFIKDAALKWMYSTAAQQHQWDGLLSYQDSLGCRLVFLLMQYCVAANYYWLLVEGVYLYTLLAFSVFSEQRIFKLYLSIGWGVPLLFVIPWGIVKYLYEDEGCWTRNSNMNYWLIIRLPILFAIGVNFLIFIRVICIVVSKLKANLMCKTDIKCRLAKSTLTLIPLLGTHEVIFAFVMDEHARGTLRFIKLFTELSFTSFQGLMVAILYCFVNNEVQMEFRKCWERWRLEHLNIQRDCSMKPLKCPTSSVSSGATVGSSVYAATCQSSYS
B3: human glucagon-like peptide-1 receptor, untagged (receptor)
chain: RPQGATVSLWETVQKWREYRRQCQRSLTEDPPPATDLFCNRTFDEYACWPDGEPGSFVNVSCPWYLPWASSVPQGHVYRFCTAEGLWLQKDNSSLPWRDLSECEESKRGERSSPEEQLLFLYIIYTVGYALSFSALVIASAILLGFRHLHCTRNYIHLNLFASFILRALSVFIKDAALKWMYSTAAQQHQWDGLLSYQDSLSCRLVFLLMQYCVAANYYWLLVEGVYLYTLLAFSVLSEQWIFRLYVSIGWGVPLLFVVPWGIVKYLYEDEGCWTRNSNMNYWLIIRLPILFAIGVNFLIFVRVICIVVSKLKANLMCKTDIKCRLAKSTLTLIPLLGTHEVIFAFVMDEHARGTLRFIKLFTELSFTSFQGLMVAILYCFVNNEVQLEFRKSWERWRLEHLHIQRDSSMKPLKCPTSSLSSGATAGSSMYTATCQASCS

Key:
[1] = molecular target: exendin-phe1 tetramethylrhodamine conjugate (tetramethylrhodamine (TMR) fluorophore (conjugation position shown in Figure 2A))
[2] = molecular target: exendin-phe1 Cy5 conjugate (Cy5 fluorophore (conjugation position shown in Figure 2A))
[3] = molecular target: exendin-asp3 tetramethylrhodamine conjugate (tetramethylrhodamine (TMR) fluorophore (conjugation position shown in Figure 2A))
[4] = molecular target: exendin-asp3 Cy5 conjugate (Cy5 fluorophore (conjugation position shown in Figure 2A))

| Binder | Kd [1] | Kd [2] | Kd [3] | Kd [4] |
| --- | --- | --- | --- | --- |
| B1 | 12.3 nM | 0.7 nM | – | – |
| B2 | 6.7 nM | – | 5.9 nM | 2.7 nM |
| B3 | 18.5 nM | – | – | 2.8 nM |
